{"source": "the RNAGym collection of RNA variant scans (doi:10.1073/pnas.2313332121)", "parents": {"B1": {"name": "TPR 5TU (parent)", "chain": "GGAUCUUCUCGAUCUAACAAAAAAGACAAAUCUGCCACAAAGCUUGAGAGCAUCUUCGGAUGCAGAGGCGGCAGCCUUCGGUGGCGCGAUAGCGCCAACGUUCUCAACUAUGACACGCAAAACGCGUGCUCCGUUGAAUGGAGUUUAUCAUG"}}, "note": "This sample holds only a part of the variants without activity."}
{"variants_of": "B1", "test": "polymerase ribozyme fitness, log enrichment relative to wild type (log ratio); higher = more active; in vitro selection for triplet polymerase activity", "method_in_brief": "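Libraries of mutants in each subunit of a heterodimeric triplet polymerase ribozyme were generated by PCR and transcribed. In triplicate, each went through one in vitro selection round: annealing with biotinylated primer, partner subunit and triplets; frozen incubation at −7 °C; gel excision of extended constructs; streptavidin-bead capture; RT-PCR. Fitness, taken from Illumina sequencing of input and output libraries, is the logarithm of a genotype's enrichment over wild-type enrichment, averaged across replicates with inverse-variance weights. The logarithm is base 2, and genotypes needed ≥10 input reads and ≥1 read per output to be kept.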"}
{"variant": "GGAUCUUCUCGAUCUAACUAAAAAGACAAAUCUGCCACAAAGCUUGAGAGCUUCUUCGGAUGCAGAGGCGGCAGCCUUCGGUGGCGCGAUAGCGCCGACGUUCUCAACUAUGACACGCAAAACGCGUGCUCCGUUGAAUGGAGUUUAUCAUG", "note": "[A19U A52U A97G]", "polymerase ribozyme fitness (log ratio)": -2.59}
{"variant": "GGAUCUUCUCGAUCUAACUAAAAAGACAAAUCUGCCACAAAGGUUGAGAGCAUGUUCGGAUGCAGAGGCGGCAGCCUUCGGUGGCGCGAUGGCGCCAACGUUCUCAACUAUGACACGCAAAACGCGUGCUCCGUUGAAUGGAGUUUAUCAUG", "note": "[A19U C43G C54G A91G]", "polymerase ribozyme fitness (log ratio)": "≤ -4.2"}
{"variant": "GGAUCUUCUCGAUCUAACUAAAAAGACAAAUCUGCCACAAAGCUUGAGAGCAUCUUCGGAUGCAGAGGCGGCAGCCUUCGGUGGCGCGAUAGCGCCAACGUUCUCAACUAUGACACGCAUAACGCGUGCUCCGUUGAAUGGAGUUUAUCAUG", "note": "[A19U A120U]", "polymerase ribozyme fitness (log ratio)": -0.806}
{"variant": "GGAUCUUCUCGAUCUAACUAAAAAGACAAAUCUGCCACAAAGCUUGAGAGCAUCUUCGGAUGCAGAGGCGGCAGCCUUCGGUGGCGGGAUAGCGCCAACGUUCUCAACUAUGACACGCAAAACGCGUGCUCCGUUGAAUGGAGUUUAUCAUG", "note": "[A19U C87G]", "polymerase ribozyme fitness (log ratio)": -4.17}
{"variant": "GGAUCUUCUCGAUCUAACUAAAAAGACAAAUCUGCCACAAAGCUUGAGAGCAUCUUCGGAUGCAGAGGCGGCAGCCUUCGGUGGCGCGAUGGGGCCAACGUUCUCAACUAAGACACGCAAAACGCGUGCUCCGUUGCAUGGAGUUUAUCAUG", "note": "[A19U A91G C93G U111A A137C]", "polymerase ribozyme fitness (log ratio)": "≤ -4.2"}
{"variant": "GGAUCUUCUCGAUCUAACUAAAAAGACAAAUCUGCCACAAAGCUUGAGAGCAUCUUCGGAUGCAGAGGCGGCAGCCUUCGGUGGCGUGAUAGCGCCAACGUUCUCAACUAUGACACGCAACACGCGUGCUCCGUUGAAUGGAGUUUUUCAUG", "note": "[A19U C87U A121C A147U]", "polymerase ribozyme fitness (log ratio)": 0.743}
{"variant": "GGAUCUUCUCGAUCUAACUAAAAAGACAAAUCUGCCACAAAGCUUGAGAGCAUCUUCGGAUGCAGAGGCGGCAGCCUUCGGUGGCGUGAUAGCGCCAACGUUCUCAACUAUGACACGCAAAACGCGUGCUCCGUUGAAUGUAGUUCAUCAUG", "note": "[A19U C87U G141U U146C]", "polymerase ribozyme fitness (log ratio)": 0.666}
{"variant": "GGAUCUUCUCGAUCUAACUAAAAAGACAAAUCUGCCACAAAGCUUGAGAGCAUCUUCGGAUGCAGAGGCGGCGGCCUUCGGUGGCUCGAUAGCGCCAACGUUCUCAACUAUGACACGCAAAACGCGUGCUCCGUUGAAUGGAGUUUAUCAUG", "note": "[A19U A73G G86U]", "polymerase ribozyme fitness (log ratio)": -1.03}
{"variant": "GGAUCUUCUCGAUCUAACUAAAAAGACAAAUCUGCCACAAAGCUUGAGAGCAUCUUCGGAUGCAGAGGCGGCAGCCUUCGGUGGGGCGAUAUCGCCAACGUUCUCAACUAUGACACGCAAAAUGCGUGCUCCGUUGAAUGGAGUUUAUCAUG", "note": "[A19U C85G G92U C123U]", "polymerase ribozyme fitness (log ratio)": -2.54}
{"variant": "GGAUCUUCUCGAUCUAACUAAAAAGACAAAUCUGCCACAAAGCUUGAGAGCAUCUUGGGAUGCAGAGGCGGCAGCCUUCGGUGGCGCGAUAGCGCCAACGUUCUCAACUAUGACACGCAAAACGCGUGCUCCGUUGAAUGGAGUUUAUCAUG", "note": "[A19U C57G]", "polymerase ribozyme fitness (log ratio)": -1.75}
{"variant": "GGAUCUUCUCGAUCUAACUAAAAAGACAAAUCUGUCACAAAGCUUGAGAGCAUCUUCGGAUGCAGAGGCGGCAGCCUUCGGUGGCGCGAUAGCGCCAACGUUCUCAACUAUGACACGCAAAACGCGUGCUCCGUUGAAUGGAGUUUAUCAUG", "note": "[A19U C35U]", "polymerase ribozyme fitness (log ratio)": -0.444}
{"variant": "GGAUCUUCUCGAUCUAACUAAAAAGACAAAUCUGCCACAAAGCUUGAGAGCAUCUUUGGAUGCAGAGGCGGCAGCCUUCGGUGGCGCGAUAGCGCCAACGUUGUCAACUAUGACACGCGAAAAGCGUGCUCCGUUGAAUGGAGUUUAUCAUG", "note": "[A19U C57U C103G A119G C123A]", "polymerase ribozyme fitness (log ratio)": -3.45}
{"variant": "GGAUCUUCUCGAUCUAACUAAAAAGACAAAUCUGCCACAAAGCUUGAGAGCAUCUUCGGAUGCAGAGGCGGCAGUCUUCGCUGGCGCGAUAGCGCCAAGGUUCUCAACUAUGACACGCGAAACGCGUGCUCCGUUGAAUUGAGUUUAUCAUG", "note": "[A19U C75U G81C C99G A119G G140U]", "polymerase ribozyme fitness (log ratio)": "≤ -4.2"}
{"variant": "GGAUCUUCUCGAUCUAACUAAAAAGACAAAUCUGCCACAAAGCUUGAGAGUAUCUUCCGAUGCAGAGGCGGCAGCCUUCGGUGGUGCGAUUGCGCCAACGUUCUCAACUAUGAUACGUAAAACGCGUGCUCCGUUGAAUGGAGUUUAUCAUG", "note": "[A19U C51U G58C C85U A91U C114U C118U]", "polymerase ribozyme fitness (log ratio)": "≤ -4.2"}
{"variant": "GGAUCUUCUCGAUCUAACUAAAAAGACAAAUCUGCCACAAAGCUUGAGAGCAUUUUCGGAUGCAGAGGCGGCAGCCUUCGGUGGCGCGAUAGCGCCAACGUUCUCAACUAUGACACGCAAAACGCGUGCUCCGCUGAAUGGAGUUUAUCCUG", "note": "[A19U C54U U134C A150C]", "polymerase ribozyme fitness (log ratio)": -2.5}
{"variant": "GGAUCUUCUCGAUCUAACUAAAAAGACAAAUCUGCCACAAAGCUUGAGAGCAUCUUCGGAUGCAGAGGCGGCAGCCUUCGGUGGGGCGAUAGCGCCAACGUUCUCAACUAUGACACGCAAGACGCGUGCUCCGUUGAAUGGAGUUUAUCAUG", "note": "[A19U C85G A121G]", "polymerase ribozyme fitness (log ratio)": -1.62}
{"variant": "GGAUCUUCUCGAUCUAACUAAAAAGAAAAAUCUGCCACAAAGCUUGAGAGCAUCUUCGGAUGCAGAGGCGGCAGCCUUCGGUGGCGCGAUUGCUCCAACGUUCUCAACUAUGACACGCAAAACGCUUGCUCCGUUGAAUGAACUUUAUCAUG", "note": "[A19U C27A A91U G94U G126U G141A G143C]", "polymerase ribozyme fitness (log ratio)": "≤ -4.2"}
{"variant": "GGAUCUUCUCGAUCUAACUAAAAAGACAAAUCUGCCACAAAGCUUGAGAGCAUCUUCGGAUGCAGAGGCGGCAGCCUUCGGUGGCGCGAUAGCGUCAACGUUCUCAACUAUGACACGCAAAACGCGUGCUCCGUUGAAUGGAGUUUAUCAUG", "note": "[A19U C95U]", "polymerase ribozyme fitness (log ratio)": -0.543}
{"variant": "GGAUCUUCUCGAUCUAACUAAAAAGACAAAUCUGCCACAAAGCUUGAGAGCAUCUUCGGAUGCAGAGGCGGCAGCCUUAGGUGGCGCGAUAGCGCCAACGUUCUCAACUAUGACACGCAAAACGCGUGCUCCGUUGAAUGGAGUUUAUCAUG", "note": "[A19U C79A]", "polymerase ribozyme fitness (log ratio)": "≤ -4.2"}
